Assay: yeast display, Sf9 membrane polyspecificity reagent, FACS + sequencing; frameworks hold sequencing errors
Procedure, shortened: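 Using colony PCR, genes from sorted yeast display clones were amplified, then sequenced on MiSeq at 2 × 250 and filtered by CDR length. The clones had been stained with 10% biotinylated, detergent-solubilized Sf9 membrane reagent for 1 hour at 4 °C and sorted by FACS into low and high (top ~1%) gates on anti-HA and streptavidin fluorescence. Polyreactivity labels come from the gate of origin.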

Row | Sequence | polyreactivity (PSR sort gate)
1 | QVQLVESGGGLVQAGGSLRISCAASGFIFASYTMGWYRQAPGKERELVAAISRAGSTYYADSVKGRFTISPDNAKNTVYLQMNSLKPEDTAVYYCNAVSWRTSRYDYWGQGTQVTVSS | high polyreactivity
2 | QVQLVESGGGLVQAGGSLRLSCAASGATFRIDAMGWYREAPGKERELVAAIARGGTSTYYADSVKGRFTISRDNAKNTVNLQMNSLKPEDTAVYYCAKRDQDRTFPNGYWGQGTKVTVSS | high polyreactivity
3 | QVQLVESGGGLVQAGGSLRLSCAASGRIFITKAMGWYRQAPGKERELVAAIRRRGGNTYYADSVKGRFTISRDNAKNTVYLQMNSLKPEDTAVYYCAVYPRPYKYNYWGQGTQVSVSS | high polyreactivity
4 | QVQLVESGGGLVQAGGSLRLSCAASGRIFRYYTMGWYRQAPGKVRELVAAITRRGGITNYADSVTGRFTISRDNAKNTVYLQMNSLKPEDTAVYYCAAKSVSQGDDYWGQGTQVTVSS | high polyreactivity
5 | QVQLVESGGGLVQAGGSLRLSCAASGFTLWLNAMGWYRQAPGKERELLAAITTSDDGTYYADSVKGRFTISRDNAKNTVYLQMNSLKPEETAVYYCAADYYSVQYDYWGQGTQVTVSS | low polyreactivity
6 | QVQLVESGGGLDQAGGSLRLSCAASGFIFYQNAMGWYKQAPGKERELFAAISTTGSRTYYADSVKGRFTISRDNPKNTVYLQMNRLKPVDTAVYYCATPLQQEGDWGQGTQVTVSS | high polyreactivity
7 | QVQLVESGGGFVQAGGSLRLSCAASGSIFAYYVMGWYRPAPGTERELGAAITSVGSTNYADSVKGRFTISRDNAKNTVYLQMNSLKPQDTAVYYCADDQYQARYYYWGQGTQVTVSS | low polyreactivity
8 | QVQLVESGGGLVQAGGSLRLSCAASGSTFPPYAMGWYRQAPGKEREFVARISWTGGSTYYADSVKGRFTISRDNAKNTVYLQMNCLKPEDTAVYYCAAKSYWGQGTQVTVSS | high polyreactivity
9 | QVQLVESGAGLVQAGGSLRLSCAASGSTFGFNTMGWYRQAPGKERELVAAISWSTGRTNYADSVKGRFTISRDNAKNTVYLQMNRLKPEDTAVYYCAARALDKYRFGGRYDYWGQGTQVTVSS | low polyreactivity
10 | QFQLVETRRGLVQAGGSLRLSCAASGSIFLENAMRRYRQAPGKERELVAVINSGDSTYYADSVKGRFTMSRDNAKNTVYLQMNSLKPEDTSVYYCAADRDVRTRVFSYDYWGQGTQVTVSS | low polyreactivity
11 | QVQLVESGGGLVQAGGSLRLSCAASGSIFKYNAMGWYRQAPGKERELVAAITYSGGSTYYADSVKGRFTISRDNAKNTVYLQMNSLKPEDTAVYYCNAYRRFSAFDYWGQGTQVTVSS | high polyreactivity
12 | QVQLVQSGGGLVQAGGSLRLSCAASGRTLWSYVMGWYRQAPGKERELVAAITSGGTTYYADSVKGRFTISRDNAKNTVYLQMNSLKPEDTAVYYCNVYTKFVYAYDYWGQGTQVTVSS | high polyreactivity
13 | QVQLVESGGGLVQAGGSLRLSCAASGRTFVNYTMGWDRQAPGKERELVAAIRYRDGSTYYADSVKGRFTISRDNAKNTVYLQMNSLKPEDTAVYYCNTRITQVGDYIYDYWGQGTQVTVSS | low polyreactivity
14 | QVHLVESGGGLVQAGGSLRLSCAASGSTFETNAMGWYRQSPGKERELVAAIRWSTGNTYYADSVKGRFTISRDNAKNTVYLQMNSLKPEDTAVYYCAAYKGKHYKEGYWGQGTQVTVSS | low polyreactivity
15 | QVQHVESGGGLVQAGGSLRLSCAASGSIFKPYAMGWYRLAPGKEREFVAAITSSDGTTYYADSVKGRFTISRDNAKNTVYVQMNSLKPEDTAVYYCNAEYYAKYVPFTKYYYWGQGTQVTVSS | low polyreactivity
16 | EVQLVESGGGLVQAGGSLRLTCAASGSIFPVYAMGWYRQAPGKERELVASISNGGTTYYADSVKGRFTISRDNAKNTVYLQMKSLKAEDTAVYYCAATGWAYGYGYGYWGQGSQVTVSS | low polyreactivity

Row | Sequence | polyreactivity (PSR sort gate)
17 | QVQLVESGGGLVQAGGSLRLSCAASGSTFGYNAMGWYRQAPGKERELVAAISSSGSSTSYADSVKGRFTISRDNAQNTVYLQMNSLKPEDTAVYYCAARWTRQRYRTSYYSWGQGTEVTVSS | high polyreactivity
18 | QVQLVESGGGLVQAGGSLRLSCAASGSTFAFNAMGWYRQAPGQERELVAGITWSSGSTYYADSVKGRFTISRDNAKNTVYLQMNSLKPEDTAVYYCNVQSVHFRLWKDNYWGQGTQVTVSS | high polyreactivity
19 | QVQLVDSGGGLVQAGGSLRLSCAASGNIICGYARGRNIQAPGKEREMVASISQRGGITYYADSVKGRFTISRDKAKNTVYLEMNSLKAEDTEVYYCAKRGTYGWYGAYDYWGEGTQVTVSS | low polyreactivity
20 | QVQLVESGGGLVQAGGSLRLSCAASGSTFDYNTMGWYRQAPGKERELVAVITYSGGRTYYADSVKGRFTISRDNAKNTVYLQMNSLKPEDTAVYYCNARYGYPLGHSIYYYWGQGTQVTVSS | low polyreactivity
21 | QVQLVQSGGGLVQAGGRLRLSCAASGRIFGFYAMGWYRQAPGKERELVAAITSTGRTYYADSVKGRFTISRDNAKNTVYLQMNSLKPEDTAVYYCAAGYGRADSGWVRMNYWGQGTQVTVSS | high polyreactivity
22 | QVQLVESGGGLVQAGGSLRLSCAASGITFSSYAMGWYRQAPGKERELVAGITRRGGITYYADSVKGRFTISRDNAKNTVYLQMNSLNPEDTAVYYCAATHRFRSGSPDGGYGYWGQGTQVTVSS | high polyreactivity
23 | PVQLVESGGGLVQAGGSLRLSCAASGSIFAVNALGWSRQAPGKERELVAAITSGGNTYYADSVKGRFTISRDNAKNTVYLQMNSLKPEDTAVYDCATVFSVQGWYFGMNYWGQGTQVTVSS | low polyreactivity
24 | QVQLVESGGGLVQAGGSLRLSCAASGIIFDTYAMGWYRQAPGKERELVAAISRSGDTTYYADSVKGRFTISRDNAKNTVFLQMNSLKPEDTAVYYCNARQSRWDKYDYWGQGTQVTVSS | high polyreactivity
25 | QVQLVESGGGLVQAGGSLRLSCAASGSTFSQYAMGWYRQAPGKERELVAAITGSTGSTYYADSVKGRFTISRDNAKNTVYLQMNSLKPEDTAVYYCAAVSSNARHVSRRRGYYWGQGTQVTVSS | high polyreactivity
26 | QVQLVESGGGLVQAGGSLRLSCAASGIIFTYYAMGWYRQAPGKERELVADIDWSGDGTYYADSVKGRFTISRDNAKNTVYLQMNSLKPEDTAVYYCAAEGTETYYVFYDQPEITLYDYWGQGTQVTVSS | low polyreactivity
27 | QVQLVESGGGLVQAGGSLRLSCAASGFIMDNYAMGCYRQAHGKERELVAAISGSGGSTYYADSVKGRFTISRDNAKNTVYLQMNSLKPEDTAVYYCNRDRLLRQYDYWGQGTQVTVSS | high polyreactivity
28 | QVQLVESGGGLVQAGGSLRLSCAASGSTFGANAMGWYRQAPGKERELVAAITYDGGSTYYADSVKGRFTISRDTAKNTVYLQMNSLKPEDTAVYYCAADFHIDSYYWGYYWGQGTQVTVSS | low polyreactivity
29 | QVQLVESGGGLVQAGGSLRLSCAASGRTFDHYAMGWYIQAPGKERELVAAISNSDGSTNYADSVKGRFTISRDNAMNTVYLQMNSLKPEDTAVYYCNKLYRGGWYDYWGLGTQVTVSS | low polyreactivity
30 | QVQLVESGGGLVQAGGSLSLSCAASGFIFLGNAMGWYRQAPGKEREVVAAISSGGSTYADSVKGRFTISRDHAKNTVYLQMNSLKPEDTAVYYCAVDRAFRAQNYHEYDYWGQGSQVTVSS | low polyreactivity
31 | QVQLVESGGGLVQAGGSLRLSCAASGLIFYYYAMGWYRPAPGKERELVAAISRRGGSTYYADSVKGRFTISRDNAKNTVYLQMNSLKPEDTAVYYCNKYRSYWSGPSYWREYDYWGQGTQVTVSS | high polyreactivity
32 | QVQLVESGGGLDQAGGSLRLSCAASGFIFSYYTMGWYRHAPGKERELVAAIRSSGGSTYADSVKGRFTISRDNAKNTVYLQMNSLKPEDTAVYYCAAESYYPAGIRGYWGQGTQVTVSS | high polyreactivity

From the nanobody polyreactivity screen of Harvey et al. (2022)
